Reference: the RNAGym collection of RNA variant scans (doi:10.7554/elife.90254)

B1: LINE1-full (parent)
chain: UACGUAGGUGGUUUUCCCCUGAUAGUGCUAAGGGGGCCUGGAAGUUUGGACUGGGCAGAGCUCAACACAGCGUGGCAAAGUGGCUGUGGCUAGACUGCCUCUCUGGAUUCCUCGUCACUCAGCAGGGCAUCUCUGAGAGAAAUGCC

Variants of: B1
Assay: self-cleavage, relative activity (ratio to wild type); higher = more cleavage; in vitro, sequencing; the parent is a self-cleaving ribozyme

Variant | self-cleavage
U26A C99A | 0.09
G97A A140G | 0.11
A50U A79G | 1.27
U14A U45A | 0.23
G55U A121G | 0.37
A50C C120U | 1.66
U13G U85A | 0.06
G7U A65U | 0.17
G21U A42U | 1.03
A77U A107G | 1.29
U15C C128U | 1.1
U112A U119A | 0
G21U U45C | 1.44
U9C U14G | 2.09
U5C U104C | 1.11
A30G U102C | 1.15
U13C C98U | 0.35
U62C A117G | 0.1
C16U G32A | 1
A22G G53A | 1.09
A57U U73C | 0.1

Variant | self-cleavage
C51U A142U | 0.87
U13C U81C | 1.05
G44A U96C | 0.13
C71U A129G | 0.91
G55C C76A | 0.1
G33C A64U | 0.64
U15G A94U | 0.58
U1C A92G | 0.14
G54C U96C | 0.03
U1C G139U | 0.74
U13C A107C | 0.94
U20C A65U | 0.14
G40A | 1.16
G32A A59G | 0.02
U81C G86U | 0.13
U26A C116U | 0.99
U104C C146U | 2.3
G40A G60U | 0.02
U29G A57G | 0.51
G36U A43U | 1.24
A117G U134A | 1.37

Variant | self-cleavage
U26A U100C | 1.07
A64C A67U | 0.11
G54A A117G | 0.52
U14C U100C | 1.55
A107G U119G | 0.84
C28G U45C | 1.09
G7U U52C | 1.1
U9C U62A | 0.14
U13C G89A | 0.04
G4U U100C | 1.73
U39C A67G | 0.35
G10A A77G | 1.31
U52A A121U | 1.03
U14C G60U | 0.04
U26A A59G | 0.06
G21A A59U | 0.57
G8A U104C | 1.29
U23C A43U | 1.06
U115A G122C | 1.09
U45C C90U | 0.08
A138U U143A | 1.52

Variant | self-cleavage
C3A A94G | 0.3
A65G A124G | 0.07
U104A A117G | 1.67
U100C A107G | 1.73
U100C A107U | 1.21
A59G A64C | 0
G8U U143A | 2.02
U52A A117G | 1.43
U112G | 1.28
U108C U130C | 1.66
C19U A64G | 0.25
A22G A64U | 0.41
C19U A140G | 0.92
A43G U96A | 0.07
C19U G48A | 0.72
G82A U143C | 2.03
A22G A136G | 1.17
A30U A117G | 2.32
G21U C131U | 1.41
A30C U96C | 0.39
